Data on three molecules can be found in patent US20240002531A1 (ONO PHARMACEUTICAL, published 2024).

What all share (experiment): peptide ELISA, OD 655 nm
(ELISA stands for enzyme-linked immunosorbent assay.)

For assay [1], the target named is T1, HER2 peptide p603-622 (amino acids 603 to 622 of human HER2) (human).
T1 construct: Synthetic peptide; also called wild-type HER2 peptide
T1 peptide: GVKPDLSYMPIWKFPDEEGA

For assay [2], the target named is T2, G603A peptide (HER2 603-622 with G603A) (human).
T2 peptide: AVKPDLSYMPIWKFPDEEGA

Assay [3] deals with T3, V604A peptide (HER2 603-622 with V604A) (human).
T3 peptide: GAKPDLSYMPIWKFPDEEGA

The target in assay [4] is T4, K605A peptide (HER2 603-622 with K605A) (human).
T4 peptide: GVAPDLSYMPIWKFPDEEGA

Assay [5] concerns the target T5, P606A peptide (HER2 603-622 with P606A) (human).
T5 peptide: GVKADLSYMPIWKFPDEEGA

Assay [6] concerns the target T6, D607A peptide (HER2 603-622 with D607A) (human).
T6 peptide: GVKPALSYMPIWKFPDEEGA

Assay [7] deals with T7, L608A peptide (HER2 603-622 with L608A) (human).
T7 peptide: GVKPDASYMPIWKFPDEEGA

The target in assay [8] is T8, S609A peptide (HER2 603-622 with S609A) (human).
T8 peptide: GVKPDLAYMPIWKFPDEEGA

In assay [9] the target is T9, Y610A peptide (HER2 603-622 with Y610A) (human).
T9 peptide: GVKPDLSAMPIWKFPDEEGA

Assay [10] addresses T10, M611A peptide (HER2 603-622 with M611A) (human).
T10 peptide: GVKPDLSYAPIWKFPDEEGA

Assay [11] concerns the target T11, P612A peptide (HER2 603-622 with P612A) (human).
T11 peptide: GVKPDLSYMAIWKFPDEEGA

Assay [12] concerns the target T12, I613A peptide (HER2 603-622 with I613A) (human).
T12 construct: also called 1613A
T12 peptide: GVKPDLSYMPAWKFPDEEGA

For assay [13], the target named is T13, W614A peptide (HER2 603-622 with W614A) (human).
T13 peptide: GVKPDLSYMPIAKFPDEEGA

The target in assay [14] is T14, K615A peptide (HER2 603-622 with K615A) (human).
T14 peptide: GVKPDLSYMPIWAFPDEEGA

Assay [15] has as its target T15, F616A peptide (HER2 603-622 with F616A) (human).
T15 peptide: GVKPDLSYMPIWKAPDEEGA

The target in assay [16] is T16, P617A peptide (HER2 603-622 with P617A) (human).
T16 peptide: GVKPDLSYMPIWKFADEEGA

Assay [17] has as its target T17, D618A peptide (HER2 603-622 with D618A) (human).
T17 peptide: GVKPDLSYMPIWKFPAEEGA

Assay [18] concerns the target T18, E619A peptide (HER2 603-622 with E619A) (human).
T18 peptide: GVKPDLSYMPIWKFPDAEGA

For assay [19], the target named is T19, E620A peptide (HER2 603-622 with E620A) (human).
T19 peptide: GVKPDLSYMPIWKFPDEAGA

Assay [20] has as its target T20, G621A peptide (HER2 603-622 with G621A) (human).
T20 peptide: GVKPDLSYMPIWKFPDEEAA

The target of assay [21] is T21, HER2_604-622C peptide (NH2-VKPDLSYMPIWKFPDEEGAC-COOH) (human).
T21 construct: KLH was added for immunisation, the peptide itself was coated in the screening ELISA
T21 peptide: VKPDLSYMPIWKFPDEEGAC

B1: H2Mab-280 antibody (antibody, mouse IgG1, kappa, V domains shown)
VH: DVKLVESGGGLVKPGGSLKLSCAASGFTFSSYSMSWVRQTPEKRLEWVAIISSGGSYTFYPDSVKGRFTISRDNAKNTLYLQMSSLKSEDTAMYHCTREAGDYWGQGTTLTVSS
VL: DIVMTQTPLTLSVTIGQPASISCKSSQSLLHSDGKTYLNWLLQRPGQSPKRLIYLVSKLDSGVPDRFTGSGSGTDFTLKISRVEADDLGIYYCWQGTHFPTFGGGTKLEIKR
Consider B1, for which the binding result in assay [1], in [2], in [3], in [4], in [5] and in assay [6] was “binds” each time. In addition, the binding result in [7], in assay [8], in assay [9], in assay [10], in assay [11] and in assay [12] was “binds” throughout. Besides, the binding result in assay [13] is listed as “no binding (tested: 10 ug/ml)”; in assay [14], “binds”; in assay [15] it was “binds”; in assay [16] it was “binds”; in assay [17] it was “binds”; in [18] it was “binds”. Besides, the binding result in assay [19], in assay [20] and in assay [21] was “binds” in each case.

B2: H2Mab-282 antibody (antibody, mouse IgG2a, kappa, V domains shown)
VH: QVQLQQSGAELSRPGASVKMSCKAAGYTFSSYMIHWVKQRPGQGLEWIGYINPSSGYSNYNQKFKDKATLTADKSSSTAYMQLSSLTSEDSAVYYCAFYDYDGDWGQGTLVTVSA
VL: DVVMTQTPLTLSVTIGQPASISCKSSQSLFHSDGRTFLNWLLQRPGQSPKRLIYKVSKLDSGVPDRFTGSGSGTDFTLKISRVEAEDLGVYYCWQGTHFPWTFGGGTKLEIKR
Turning to B2, the binding result in assay [1], in assay [2], in [3], in [4], in [5] and in assay [6] was “binds” in each case. In addition, the binding result in assay [7], in [8], in assay [9], in assay [10], in assay [11] and in assay [12] was “binds” in each case. Also, the binding result was “binds” in assay [13]; “binds” in [14]; “no binding (tested: 10 ug/ml)” in assay [15]; “binds” in [16]; “binds” in assay [17]; “binds” in assay [18]. The binding result in assay [19], in assay [20] and in assay [21] was “binds” each time.

B3: H2Mab-279 antibody (antibody, mouse IgG3, V domains shown)
VH: EVQLVESGGGLVQPGGSLKLSCAASGFSFSSYGIFWVRQTPDKRLELVATIKSNGGRTYYPDSVKGRFTISRDNAKNTLHLQMSSLKSEDTAMYYCAREGGDYWGQGTSVTVSS
VL: DIVMTQSHKIMSTSVGDRVSISCKASQDVGTAVAWYQQKPGQSPILLIYWASTRHTGVPDRFTGSGSGTDFTLTISNVQSEDLADYFCQQYKSNPLTFGAGTKLELKR
As to B3, the binding result in assay [1], in [2], in assay [3], in [4], in assay [5] and in assay [6] was “binds” throughout. In addition, the binding result in assay [7], in assay [8], in [9], in assay [10], in assay [11] and in assay [12] was “binds” in each case. The binding result in assay [13], in assay [14], in assay [15], in [16], in [17] and in [18] was “binds” throughout. Further, the binding result in assay [19], in [20] and in [21] was “binds” in each case.
